Data published in US20220396788, “RECOMBINANT TRANSPOSON ENDS” (THERMO FISHER SCIENTIFIC BALTICS, UAB, published 2022).
Substitutions are numbered along the chain they refer to.

B1: Mu-N0 transposon end (control) (dsDNA)
DNA 1: GTTTTCGCATTTATCGTGAAACGCTTTCGCGTTTTTCGTGCGCCGCTTCA
DNA 2: CTAGTGAAGCGGCGCACGAAAAACGCGAAAGCGTTTCACGATAAATGCGAAAAC
B2: Tn-SEQ1 (dsDNA)
DNA 1: GTTTTAGATGTGTATAAGAGACAGTTTCGCGTTTTTCGTGCGCCGCTTCA
DNA 2: CTAGTGAAGCGGCGCACGAAAAACGCGAAACTGTCTCTTATACACATCTAAAAC
B3: GGGA barcode end (dsDNA)
DNA 1: B1 DNA 1 with C46G, T47G, T48A
DNA 2: B1 DNA 2 with A7T, A8C, G9C
B4: CGCA barcode end (dsDNA)
DNA 1: B1 DNA 1 with G45C, C46G, T47C, T48A
DNA 2: B1 DNA 2 with A7T, A8G, G9C, C10G
B5: GCGT barcode end (dsDNA)
DNA 1: B1 DNA 1 with T47G
DNA 2: B1 DNA 2 with A8C
B6: CTCT barcode end (dsDNA)
DNA 1: B1 DNA 1 with G45C, C46T, T47C
DNA 2: B1 DNA 2 with A8G, G9A, C10G
B7: TACG barcode end (dsDNA)
DNA 1: B1 DNA 1 with G45T, C46A, T47C, T48G
DNA 2: B1 DNA 2 with A7C, A8G, G9T, C10A
B8: TTTC barcode end (dsDNA)
DNA 1: B1 DNA 1 with G45T, C46T, T48C
DNA 2: B1 DNA 2 with A7G, G9A, C10A
B9: CATG barcode end (dsDNA)
DNA 1: B1 DNA 1 with G45C, C46A, T48G
DNA 2: B1 DNA 2 with A7C, G9T, C10G
B10: TATA barcode end (dsDNA)
DNA 1: B1 DNA 1 with G45T, C46A, T48A
DNA 2: B1 DNA 2 with A7T, G9T, C10A
B11: GTAC barcode end (dsDNA)
DNA 1: B1 DNA 1 with C46T, T47A, T48C
DNA 2: B1 DNA 2 with A7G, A8T, G9A
B12: ACAT barcode end (dsDNA)
DNA 1: B1 DNA 1 with G45A, T47A
DNA 2: B1 DNA 2 with A8T, C10T
B13: ACGC barcode end (dsDNA)
DNA 1: B1 DNA 1 with G45A, T47G, T48C
DNA 2: B1 DNA 2 with A7G, A8C, C10T
B14: AGAG barcode end (dsDNA)
DNA 1: B1 DNA 1 with G45A, C46G, T47A, T48G
DNA 2: B1 DNA 2 with A7C, A8T, G9C, C10T
B15: Tn-SEQ2.2 (dsDNA)
DNA 1: GTTTTCGCATTTATCGTGAAACGCTTTCGCGTTTTTGCTCTTCCGATCTA
DNA 2: CTAGTAGATCGGAAGAGCAAAAACGCGAAAGCGTTTCACGATAAATGCGAAAAC
B16: Tn-SEQ2.1 (dsDNA)
DNA 1: GTTTTCGCTCTTCCGATCTAACGCTTTCGCGTTTTTCGTGCGCCGCTTCA
DNA 2: CTAGTGAAGCGGCGCACGAAAAACGCGAAAGCGTTAGATCGGAAGAGCGAAAAC

Target: T1, MuA transposase (UniProt P07636 P07636:1-663)
T1 sequence (P07636 whole entry, the tested form may be a part, one chain of several): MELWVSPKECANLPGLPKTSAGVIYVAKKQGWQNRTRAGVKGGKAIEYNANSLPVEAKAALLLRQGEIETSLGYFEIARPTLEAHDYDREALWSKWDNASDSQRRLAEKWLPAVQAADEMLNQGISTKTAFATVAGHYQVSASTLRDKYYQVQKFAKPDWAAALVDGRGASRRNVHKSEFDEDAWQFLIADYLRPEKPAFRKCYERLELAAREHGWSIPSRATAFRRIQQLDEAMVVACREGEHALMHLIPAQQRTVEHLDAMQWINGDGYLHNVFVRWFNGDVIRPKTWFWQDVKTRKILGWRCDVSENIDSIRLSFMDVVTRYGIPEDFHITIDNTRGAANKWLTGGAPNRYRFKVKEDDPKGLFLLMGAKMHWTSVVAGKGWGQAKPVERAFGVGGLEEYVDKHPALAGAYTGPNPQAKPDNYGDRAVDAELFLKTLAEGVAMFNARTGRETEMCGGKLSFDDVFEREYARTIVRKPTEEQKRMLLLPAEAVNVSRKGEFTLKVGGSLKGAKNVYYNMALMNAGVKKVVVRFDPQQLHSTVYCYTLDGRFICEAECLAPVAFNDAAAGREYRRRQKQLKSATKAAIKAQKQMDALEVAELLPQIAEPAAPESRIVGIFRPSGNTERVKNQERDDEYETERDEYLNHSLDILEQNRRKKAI
Assay: EMSA; transposome assembly pH 6.0, 10% DMSO, 30 C 1 h; also fragments lambda DNA (FIG. 5A)
Settings: chain copies: 4 (inferred); 5' overhang on non-transferred strand
Experimental: (§1) Analysis was carried out on 2% agarose gel containing 0.5 μg/mL Ethidium bromide and 87 μg/mL BSA and heparin. 5 μL of each loaded sample contains 2 μL of each transposome complex, 1 μL 6× TriTrack DNA Loading Dye (Thermo Scientific, Cat. No. R1161) and 2 μL of water. GeneRuler Low Range DNA Ladder (Thermo Scientific, Cat. No. SM1193) was used.
(§2) MuA transposomes were formed in 30 mM Tris-HCl, pH 6.0, 10% (v/v) glycerol, 0.005% (w/v) Triton X-100, 30 mM NaCl, 0.02 mM EDTA, and 10% DMSO. The complex assembly reaction contained equimolar ratio of transposon end (11.2 μM) and MuA transposase (1.65 mg/mL). Components were well mixed and incubated for one hour at 30° C. After incubation, the complex assembly mix was diluted with dilution buffer (88.0% glycerol, 314.5 mM NaCl, and 2.83 mM EDTA) to the final MuA concentration of 0.919 mg/mL. Complexed MuA transposome was stored at −70° C. for at least 16 hours before use.
Complex assembly efficiency was evaluated using an electrophoretic mobility shift assay (EMSA) on a 2% agarose gel containing 0.5 μg/mL ethidium bromide and 87 μg/mL BSA and heparin. Activity was evaluated by fragmenting 100 ng Escherichia virus lambda genomic DNA with 1.5 μL MuA complex in 30 μL of 1× Fragmentation Reaction Buffer (Thermo Scientific™ MuSeek™ Library Preparation Kit, Illumina™ compatible, Cat. No. K1361). […]

Does B1 bind?
Result: binds

Target: T1, MuA transposase
Assay: EMSA; 13 substitutions (3 sensitive); active (FIG. 13A)
Settings: chain copies: 4 (inferred); 5' overhang
Experimental: as §2, with “1× Complex Assembly Buffer with” for “30 mM Tris-HCl, pH 6.0, 10% (v/v) glycerol, 0.005% (w/v) Triton X-100, 30 mM NaCl, 0.02 mM EDTA, and 10%”, “Complex” for “The complex”, “(9.3” for “(11.2”, “well-mixed” for “well mixed”
(§3) Complex assembly efficiency was evaluated using an electrophoretic mobility shift assay (EMSA) on a 2% agarose gel containing 0.5 μg/mL Ethidium bromide and 87 μg/mL BSA and heparin. Activity was evaluated by fragmenting 100 ng Escherichia virus lambda genomic DNA with 1.5 μL MuA complex in 1× Fragmentation Reaction Buffer (Thermo Scientific™ MuSeek™ Library Preparation Kit, Illumina™ compatible, Cat. No. K1361). Fragmentation was carried out for 5 minutes at 30° C., then stopped by adding 4.4% SDS solution.

Does B2 bind?
Result: binds

Target: T1, MuA transposase
Assay: EMSA; stable transposome; DMSO, 30 C 1 h; active (FIG. 9)
Settings: chain copies: 4 (inferred); 5' overhang
Experimental: as §1, with “FIG. 8 provides EMSA analysis of MuA transposomes that all contain individual unique sequences. Analysis” for “Analysis”, “R1161),” for “R1161)”, “SM1193) marker” for “SM1193)”
(§4) MuA transposomes were formed in 1× Complex Assembly Buffer with DMSO. The complex assembly reaction contained equimolar ratio of transposon end (9.3 μM) and MuA transposase (1.65 mg/mL). Components were well-mixed and placed for incubated for one hour at 30° C. After incubation, the complex assembly mix was diluted with dilution buffer (88.0% glycerol, 314.5 mM NaCl, and 2.83 mM EDTA) to the final MuA concentration of 0.919 mg/mL. Complexed MuA transposome was stored at −70° C. for at least 16 hours before use.

Does B3 bind?
Result: binds

Does B4 bind?
Result: binds

Does B5 bind?
Result: binds

Does B6 bind?
Result: binds

Does B7 bind?
Result: binds

Does B8 bind?
Result: binds

Does B9 bind?
Result: binds

Does B10 bind?
Result: binds

Does B11 bind?
Result: binds

Does B12 bind?
Result: binds

Does B13 bind?
Result: binds

Does B14 bind?
Result: binds

Target: T1, MuA transposase
Assay: EMSA; 8 substitutions (1 sensitive); active (FIG. 13C)
Settings: chain copies: 4 (inferred); 5' overhang
Experimental: as §4, with “Complex” for “The complex”, “and” for “and placed for”
as §3

Does B15 bind?
Result: binds

Target: T1, MuA transposase
Assay: EMSA; 8 substitutions (1 sensitive); active (FIG. 13B)
Settings: chain copies: 4 (inferred); 5' overhang
Experimental: as §4, with “Complex” for “The complex”, “and” for “and placed for”
as §3

Does B16 bind?
Result: binds
